Measured values from US20100158922A1 (NOVIMMUNE S A, published 2010).

T1: recombinant human IFNγ (human, UniProt P01579 24-166, limits assumed)
T1 sequence (looked up): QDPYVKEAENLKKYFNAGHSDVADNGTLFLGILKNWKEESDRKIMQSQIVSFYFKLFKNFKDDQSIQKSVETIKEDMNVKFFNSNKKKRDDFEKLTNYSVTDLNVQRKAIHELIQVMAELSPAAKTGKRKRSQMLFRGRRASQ

T2: native human IFNγ (human, UniProt P01579 24-161, limits assumed)
T2 construct: Native protein in a culture supernatant; also called nhuIFNγ
T2 sequence (looked up): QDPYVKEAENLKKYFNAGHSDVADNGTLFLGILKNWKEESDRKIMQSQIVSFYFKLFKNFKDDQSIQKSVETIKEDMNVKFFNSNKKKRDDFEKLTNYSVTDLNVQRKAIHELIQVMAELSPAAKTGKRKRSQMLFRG

T3: native cynomolgus IFNγ (cynomolgus monkey, UniProt P63309 24-165, limits assumed)
T3 construct: Native protein in a culture supernatant; also called ncyIFNγ
T3 sequence (looked up): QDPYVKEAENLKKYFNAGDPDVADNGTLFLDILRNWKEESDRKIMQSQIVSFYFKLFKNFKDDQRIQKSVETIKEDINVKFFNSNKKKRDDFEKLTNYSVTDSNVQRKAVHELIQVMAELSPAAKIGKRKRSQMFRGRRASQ

T4: recombinant cynomolgus IFNγ (cynomolgus monkey, UniProt P63309 24-165)
T4 construct: also called rcyIFNγ
T4 sequence (looked up): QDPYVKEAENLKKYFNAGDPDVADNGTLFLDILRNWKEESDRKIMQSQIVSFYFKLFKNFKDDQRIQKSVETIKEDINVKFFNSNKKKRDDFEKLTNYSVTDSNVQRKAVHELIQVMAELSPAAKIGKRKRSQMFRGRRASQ

T5: recombinant dog IFNγ (dog, UniProt P42161 24-166)
T5 construct: also called rdIFNγ
T5 sequence (looked up): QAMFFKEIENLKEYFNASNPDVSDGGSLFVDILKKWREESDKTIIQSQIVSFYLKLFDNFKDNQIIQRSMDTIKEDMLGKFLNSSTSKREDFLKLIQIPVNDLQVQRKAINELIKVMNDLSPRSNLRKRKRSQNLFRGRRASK

T6: recombinant cat IFNγ (cat, UniProt P46402 24-167)
T6 construct: also called rcIFNγ
T6 sequence (looked up): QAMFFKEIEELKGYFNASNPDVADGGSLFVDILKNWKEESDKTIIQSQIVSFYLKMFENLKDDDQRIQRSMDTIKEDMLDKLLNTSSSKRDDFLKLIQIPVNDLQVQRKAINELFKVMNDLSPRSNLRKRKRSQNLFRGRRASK


Experiments:
recombinant human IFNγ [1] = target: T1, recombinant human IFNγ; experiment: cell-based or functional assay
native human IFNγ = target: T2, native human IFNγ; experiment: Binding, cross-reactivity table (Sandwich ELISA)
native cynomolgus IFNγ = target: T3, native cynomolgus IFNγ; experiment: Binding, cross-reactivity table (Sandwich ELISA)
[2] = target: T4, recombinant cynomolgus IFNγ; experiment: Binding, cross-reactivity table (Sandwich ELISA)
recombinant human IFNγ [3] = target: T1, recombinant human IFNγ; experiment: Binding, cross-reactivity table (Sandwich ELISA)
recombinant dog IFNγ = target: T5, recombinant dog IFNγ; experiment: Sandwich ELISA, IFNγ captured with pre-coated NI-0501
From the text: (§1) The IFNγ from each species was detected using a polyclonal antibody specific for the IFNγ in that assay.

recombinant cat IFNγ = target: T6, recombinant cat IFNγ; experiment: as above
From the text: as §1

Binder | MHC II Inhibition Cell-Based Assay IC50 (recombinant human IFNγ [1]) [pM] | further results
AD1.4R4P1_B9 IgG (antibody, V domains shown) VH: not shown VL: NFMLTQPHSVSESPGKTVTISCTRSSGSIVSNYVQWYQQRPGSAPTTVIFDDDQRPSGVPGRFSGSLDSSSNSASLTISGLQTEDEADYYCQSYDSSNVVFGGGTKVTVLG | 322 | –
AC1.4R4P2_C10 IgG (antibody, V domains shown) VH: not shown VL: NFMLTQPHSVSESPGKTVTISCTRSSGTIASNYVQWYQQRPGSSPTTVIYEDNQRPSGVPDRFSGSIDSSSNSASLTISGLKTEDEADYYCQSYDNSNHWVFGGGTKVTVLG | 203 | –
AD1.4R4P2_G7 IgG (antibody, V domains shown) VH: not shown VL: NFMLTQPHAVSESPGKTVTISCTGRNGNIASNYVQWYQQRPDSAPTLIIFEDTQRPSGVPTRLSGSIDTSSNSASLIISSLRTEDEADYYCQSSDSNRVLFGGGTKVTVLG | 233 | –
AC1.2R3P2_A6 IgG (antibody, V domains shown) VH: not shown VL: NFMLTQPHSVSESPGKTVTISCTRSSGSIVSNYVQWYQQRPGSAPTTVIYEDNRRPSGVPDRFSGSIDSSSNTASLTISGLEAEDEADYYCQSYDGSNRWMFGGGTKLTVLG | 41 | –
AC1.2R2P2_D8 IgG (antibody, V domains shown) VH: not shown VL: NFMLTQPHSVSESPGKTVTISCTRSSGSIVSNYVQWYQQRPGSSPTTVIYEDNQRPSGVPDRFSGSIDSSSNSASLTISGLKTEDEADYYCQSYDSNNFWVFGGGTKLTVLG | 708 | –
AD1.3R3P5_F8 IgG (antibody, V domains shown) VH: not shown VL: NFMLTQPHSVSESPGKTVTISCTRSSGSIASNYVHWYQQRPGSSPTTVIYEDNRRPSGVPARFSGSIDSSSNSASLTISGLETDDEADYYCQSSDTTYHGGVVFGGGTKLTVLG | 1520 | –
AD1.3R3P6_F9 IgG (antibody, V domains shown) VH: not shown VL: NFMLTQPHSVSESPGKTVTISCTRSSGSIASNYVQWYQQRPGSAPTIVIYEDNQRPSGVPHRFSGSIDSSSNSASLTISGLKTEDEADYYCQSYEGFGGGTKLTVLG | 185 | –
NI-0501 (antibody, V domains shown, It is the back-mutated version of A6; also called A6 back-mutated to germline; back-mutated A6) VH: not shown VL: NFMLTQPHSVSESPGKTVTISCTRSSGSIASNYVQWYQQRPGSSPTTVIYEDNQRPSGVPDRFSGSIDSSSNSASLTISGLKTEDEADYYCQSYDGSNRWMFGGGTKLTVL | – | binding result (native human IFNγ): binds; binding result (native cynomolgus IFNγ): binds; binding result [2]: binds; binding result (recombinant human IFNγ [3]): binds; binding result (recombinant dog IFNγ): no binding; binding result (recombinant cat IFNγ): no binding
